Assay results taken from the RNAGym collection of RNA variant scans (doi:10.7554/elife.90254).

B1: LINE1-mini (parent)
chain: GGCAGAGCUCAACACAGCGUGGCAAAGUGGCUGUGGCUAGACUGCC

Variants of: B1
Experiment: self-cleavage, relative activity (ratio to wild type); higher = more cleavage; in vitro, sequencing; the parent is a self-cleaving ribozyme

Row | Variant | self-cleavage
1 | C10U C13G | 0.09
2 | C10U C13A | 0.06
3 | C10U C13U | 0.06
4 | C10U A16U | 0.19
5 | C10U A16G | 0.19
6 | C10U A16C | 0.06
7 | A11C G21A | 0.26
8 | A11C G21C | 0.08
9 | A11C G21U | 0.1
10 | C10U G36U | 0.03
11 | C10U G36C | 0.05
12 | C10U G36A | 0.08
13 | C10G U38G | 0.03
14 | C10G U38A | 0.06
15 | C10G U38C | 0.02
16 | C10U U38G | 0.03
17 | C10U U38C | 0.17
18 | C10U U38A | 0.04
19 | C10G G17C | 0.23
20 | C10G G17A | 0.16
21 | C10G G17U | 0.07
22 | C10U G22A | 0.25
23 | C10U G22U | 0.42
24 | C10U G22C | 0.18

Row | Variant | self-cleavage
25 | C10U U32G | 0.12
26 | C10U U32A | 0.08
27 | C10U U32C | 0.1
28 | A11C A14U | 0.03
29 | A11C A14C | 0.02
30 | A11C A14G | 0.04
31 | A11C C23G | 0.06
32 | A11C C23A | 0.07
33 | A11C C23U | 0.05
34 | C10G A24U | 0.15
35 | C10G A24C | 0.06
36 | C10G A24G | 0.1
37 | A11C A12C | 0.02
38 | A11C A12G | 0.04
39 | A11C A12U | 0.03
40 | C10G G29A | 0.1
41 | C10G G29C | 0.04
42 | C10G G29U | 0.08
43 | C10G C31A | 0.04
44 | C10G C31G | 0.02
45 | C10G C31U | 0.05
46 | A11G A24U | 0.02
47 | A11G A24G | 0.02
48 | A11G A24C | 0.03

Row | Variant | self-cleavage
49 | A11C C46A | 0.03
50 | A11C C46G | 0.02
51 | A11C C46U | 0.11
52 | A11C C45A | 0.05
53 | A11C C45U | 0.12
54 | A11C C45G | 0.02
55 | C10U C46G | 0.32
56 | C10U C46A | 0.33
57 | C10U C46U | 0.21
58 | A11C C15U | 0.03
59 | A11C C15G | 0.02
60 | A11C C15A | 0.02
61 | C10G U43A | 0.01
62 | C10G U43G | 0.02
63 | C10G U43C | 0.02
64 | A11C A41G | 0.03
65 | A11C A41U | 0.04
66 | A11C A41C | 0.01
67 | C10G C42A | 0.03
68 | C10G C42U | 0.03
69 | C10G C42G | 0.03
70 | A11C C37G | 0.01
71 | A11C C37A | 0.02
72 | A11C C37U | 0.02

Row | Variant | self-cleavage
73 | C10U A12U | 0.08
74 | C10U A12C | 0.02
75 | C10U A12G | 0.02
76 | C10G A41G | 0.05
77 | C10G A41C | 0.01
78 | C10G A41U | 0.05
79 | C10U G30U | 0.59
80 | C10U G30A | 0.54
81 | C10U G30C | 0.36
82 | C10U A25C | 0.21
83 | C10U A25U | 0.48
84 | C10U A25G | 0.39
85 | C10G C46G | 0.05
86 | C10G C46A | 0.09
87 | C10G C46U | 0.06
88 | A11G A12C | 0.02
89 | A11G A12G | 0.02
90 | A11G A12U | 0.04
91 | C10G A39U | 0.16
92 | C10G A39C | 0.02
93 | C10G A39G | 0.03
94 | C10G A26U | 0.15
95 | C10G A26C | 0.11
96 | C10G A26G | 0.12

Row | Variant | self-cleavage
97 | C10U G27U | 0.31
98 | C10U G27C | 0.23
99 | C10U G27A | 0.27
100 | C10U A39U | 0.37
101 | C10U A39G | 0.08
102 | C10U A39C | 0.17
103 | A11C U32C | 0.04
104 | A11C U32G | 0.03
105 | A11C U32A | 0.04
106 | C10U G35U | 0.05
107 | C10U G35C | 0.04
108 | C10U G35A | 0.08
109 | C10G C18U | 0.09
110 | C10G C18G | 0.04
111 | C10G C18A | 0.08
112 | C10U A26G | 0.4
113 | C10U A26C | 0.31
114 | C10U A26U | 0.31
115 | C10G U20A | 0.06
116 | C10G U20G | 0.05
117 | C10G U20C | 0.07
118 | C10G U32A | 0.02
119 | C10G U32G | 0.02
120 | C10G U32C | 0.03

Row | Variant | self-cleavage
121 | C10U | 0.34
122 | C10G G27A | 0.14
123 | C10G G27U | 0.08
124 | C10G G27C | 0.09
125 | C10G G36A | 0.01
126 | C10G G36C | 0.03
127 | C10G G36U | 0.02
128 | A11C A25G | 0.08
129 | A11C A25U | 0.09
130 | A11C A25C | 0.09
131 | A11C G29U | 0.07
132 | A11C G29C | 0.05
133 | A11C G29A | 0.06
134 | A11C C13U | 0.03
135 | A11C C13G | 0.03
136 | A11C C13A | 0.03
137 | A11C A24G | 0.06
138 | A11C A24U | 0.11
139 | A11C A24C | 0.04
140 | C10G C37G | 0.01
141 | C10G C37A | 0.01
142 | C10G C37U | 0.01
143 | C10U C15G | 0.05
144 | C10U C15A | 0.06

Row | Variant | self-cleavage
145 | C10U C15U | 0.28
146 | C10U C45G | 0.15
147 | C10U C45A | 0.15
148 | C10U C45U | 0.23
149 | C10U A24C | 0.11
150 | C10U A24G | 0.35
151 | C10U A24U | 0.48
152 | A11C U28C | 0.03
153 | A11C U28A | 0.06
154 | A11C U28G | 0.05
155 | A11C U20A | 0.02
156 | A11C U20G | 0.04
157 | A11C U20C | 0.02
158 | C10G G44C | 0.06
159 | C10G G44A | 0.05
160 | C10G G44U | 0.04
161 | A11G A16C | 0.02
162 | A11G A16U | 0.03
163 | A11G A16G | 0.02
164 | A11G | 0.04
165 | A11C | 0.08
166 | C10G A14G | 0.09
167 | C10G A14C | 0.04
